The values that follow come from patent US20160237162A1 (AstraZeneca / MedImmune, published 2016).

The target of assay [1] is T1, human HER3 on human cancer cells (human, UniProt P21860 20-1342). The assay is described as follows: cell-based or functional assay.
Assay [2] deals with T2, Recombinant mouse HER3(ECD)/Fc chimera (mouse, UniProt Q61526 20-641).
T2 construct: Generated in house; also called murine HER3 (as a HER3-Fc fusion); murine HER3; not shown: Fc part and any linker or tag of the in-house chimera
The experiment in a line: ELISA with purified IgG on murine HER3. (In an ELISA, binding on a coated surface is turned into a signal by an enzyme label.)

Assay [3] addresses T1, human HER3 on human cancer cells. The assay is described as follows: cell-based or functional assay. This is another data set of the same source.
Assay [4] has the same target. The assay is described as follows: cell-based or functional assay. The source holds these as a separate data set.
Assay [5] has as its target T3, Recombinant human HER3(ECD)/Fc chimera (human, UniProt P21860 20-643, biotinylated in the capture ELISA of section 1.9).
T3 construct: extracellular domain; Bought (R&D Systems); The ELISA sections say only 'recombinant HER3 protein' / 'biotinylated HER3 protein' / 'recombinant HER3'; also called recombinant HER3 protein; biotinylated HER3 protein; not shown: Fc, linker peptide and C-terminal 6x Histidine-tag
The assay is described as follows: HRG-HER3 ELISA: plate coated with HRG, antibody dilutions premixed with 5 ug/ml recombinant HER3, bound HER3 detected by anti-His HRP; blocked ligand HRG.

The target in assay [6] is T3, Recombinant human HER3(ECD)/Fc chimera. The experiment in a line: Fab capture ELISA with biotinylated HER3.
Protocol: (§1) Briefly, this capture ELISA involved coating individual wells of a 96-well Maxisorp Immunoplate with approximately 50 ng of a sheep anti-human Fd antibody (Biodesign International, ME) in a carbonate buffer at pH 8.5 overnight at 4° C. The next day, the plate was blocked with 3% BSA in PBS buffer for 1 h at room temperature. Fab supernatant was then added to the plate and incubated at room temperature for 1 hr. After washing, 0.1 μg of biotinylated HER3 protein was added to the well and the mixture was incubated for 1.5 h at room temperature. This was followed by incubation with neutravidin-horseradish peroxydase (HRP) conjugate (Pierce, Ill.) for approximately 40 min at room temperature. HRP activity was detected with tetra-methyl-benzidine (TMB) substrate and the reaction quenched with 0.2 M H₂SO₄. Plates were read at 450 nm.
(§2) The Fab concentration was determined by comparing the ELISA signals with the signals generated by the reference Fab.
For assay [7] the target is unchanged. The experiment in a line: Fab capture ELISA with biotinylated HER3, against GL-P6.
Protocol: as §1, §2
Assay [8] has as its target T1, human HER3 on human cancer cells. The assay is described as follows: cell-based or functional assay. The source holds these as a separate data set.
Assay [9] shares this target. The assay is described as follows: cell-based or functional assay. The source holds these as a separate data set.
Assay [10] has the same target. The assay is described as follows: cell-based or functional assay. The source holds these as a separate data set.
Assay [11] has the same target. The assay is described as follows: cell-based or functional assay. The source holds these as a separate data set.
For assay [12] the target is unchanged. The experiment in a line: cell-based or functional assay. The source holds these as a separate data set.
The target is the same in assay [13]. The experiment in a line: cell-based or functional assay. This is another data set of the same source.
For assay [14] the target is unchanged. The experiment in a line: cell-based or functional assay. The source holds these as a separate data set.
Assay [15] shares this target. The experiment in a line: cell-based or functional assay. This is another data set of the same source.

Positions count from the first letter of the chain named. Names may count otherwise.

B1: 1A4 antibody, human IgG1 (antibody, V domains shown)
VH: EVQLLESGGGLVQPGGSLRLSCAASGFTFSYYYMQWVRQAPGKGLEWVSYIGSSGGVTNYADSVKGRFTISRDNSKNTLYLQMNSLRAEDTAVYYCARVGLGDAFDIWGQGTMVTVSS
VL: QSVLTQPPSASGTPGQRVTISCSGSSSNIGLNYVSWYQQLPGTAPKLLISRNNQRPSGVPDRFSGSKSGTSASLAISGLRSEDEADYYCAAWDDSPPGEAFGGGTKLTVL
notes: IgG1, lambda
For B1, in [1], the “BT474 6-day growth % Max inhibition” value was determined as 54.5%, the “BT474 clonogenic assay % Max inhibition” value was 81.3%, the “BT474 pAKT assay % Max inhibition” value was 62% and the “T47D HRG inducible pHer3 % Max inhibition” value is 84%. In addition, the binding result in assay [2] is “binds”.

B2: 2C2-YTE monoclonal antibody (antibody, human IgG1, V domains shown)
VH: B1 VH
VL: B1 VL with S26L
For the molecule B2, the “IC50 (read off the curve); suppression of pHER3 (pHER3 ELISA), BT-474 cells” value in assay [3] is around 0.003 ug/ml. The “IC50 (read off the curve); suppression of pAKT (Meso-Scale Discovery assay), BT-474 cells” value in assay [4] is around 0.003 ug/ml.

B3: Clone 16 antibody (CL16), human IgG1 (antibody, V domains shown)
VH: B1 VH
VL: B1 VL with S2Y, V3E, I20M, P96L, P97S, A100V
notes: also called parental IgG; Clone 16-PA
Take B3: in [1], the “BT474 6-day growth % Max inhibition” value stood at 46%, the “BT474 clonogenic assay % Max inhibition” value is 79.8%, the “BT474 pAKT assay % Max inhibition” value was 64% and the “T47D HRG inducible pHer3 % Max inhibition” value was found to be 75%. Moreover, the “IC50 (read off the curve)” value in assay [5] was around 0.6 µg/mL.

B4: clone 2D1 Fab (Fab, V domains shown)
VH: B1 VH
VL: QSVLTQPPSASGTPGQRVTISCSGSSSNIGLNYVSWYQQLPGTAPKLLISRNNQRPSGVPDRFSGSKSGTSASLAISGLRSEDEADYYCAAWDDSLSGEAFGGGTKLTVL
notes: Fab, single VL mutant (V97A) of GL-P6
B4: the binding result in assay [6] is “binds”.

B5: clone 4H6 Fab (Fab, V domains shown)
VH: B1 VH
VL: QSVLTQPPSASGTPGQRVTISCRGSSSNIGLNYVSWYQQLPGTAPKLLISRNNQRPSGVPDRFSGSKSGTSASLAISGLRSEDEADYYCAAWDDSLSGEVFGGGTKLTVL
notes: Fab, single VL mutant (S24R) of GL-P6
For B5, the binding result in assay [6] was “binds”.

B6: 3E1 antibody, human IgG1 (antibody, V domains shown)
VH: B1 VH
VL: B1 VL with S23R
notes: IgG1, lambda
For the molecule B6, in assay [1], the “BT474 6-day growth % Max inhibition” value stood at 48.1%, the “BT474 clonogenic assay % Max inhibition” value came to 79.2%, the “BT474 pAKT assay % Max inhibition” value amounted to 66% and the “T47D HRG inducible pHer3 % Max inhibition” value was 86%. Moreover, the binding result in assay [2] is recorded as “binds”.

B7: clone 8A3 Fab (Fab, V domains shown)
VH: B1 VH
VL: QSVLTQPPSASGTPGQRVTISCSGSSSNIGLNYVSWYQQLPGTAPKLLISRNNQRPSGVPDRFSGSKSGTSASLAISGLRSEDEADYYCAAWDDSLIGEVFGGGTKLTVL
notes: Fab, single VL mutant (S96aI) of GL-P6
As for B7, the fold binding improvement in assay [7] was 3.5 fold.

B8: clone 4C4 Fab (Fab, V domains shown)
VH: B1 VH
VL: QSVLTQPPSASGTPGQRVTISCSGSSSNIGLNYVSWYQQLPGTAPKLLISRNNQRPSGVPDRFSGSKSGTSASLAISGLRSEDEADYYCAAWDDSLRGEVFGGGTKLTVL
notes: Fab, single VL mutant (S96aR) of GL-P6
With B8, the fold binding improvement in assay [7] was found to be 8.6 fold.

B9: clone 6E3 Fab (Fab, V domains shown)
VH: B1 VH
VL: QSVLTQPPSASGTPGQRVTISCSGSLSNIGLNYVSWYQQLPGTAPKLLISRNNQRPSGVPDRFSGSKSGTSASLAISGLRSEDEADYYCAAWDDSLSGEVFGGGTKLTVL
notes: Fab, single VL mutant (S27L) of GL-P6
Turning to B9, in assay [6], the binding result is “binds”.

B10: 2C2 monoclonal antibody, human IgG1 (antibody, V domains shown)
VH: B1 VH
VL: B1 VL with S26L
Regarding B10, the “HRG-induced pHER3 ELISA in MCF-7 cells; potency by IC50 against MM and AMG” value in [8] is around 5 fold. In addition, in assay [1], the “BT474 clonogenic assay % Max inhibition” value turned out to be 87.2%, the “BT474 pAKT assay % Max inhibition” value came to 61% and the “T47D HRG inducible pHer3 % Max inhibition” value stood at 85%. Moreover, in assay [9], the “IC50; suppression of HRG-induced pHER3 (pHER3 ELISA), MCF-7 cells” value came out at 8.4 ng/ml. Besides, the “IC50; growth suppression (CellTiter-Glo, 6 days), HMCB melanoma cells” value in [10] stood at 0.027 µg/mL. The “IC50; suppression of pHER3 (pHER3 ELISA), HCC827 cells” value in assay [11] worked out at 2 ng/ml. For the same molecule, the “IC50; suppression of pHER3 (pHER3 ELISA), EGFR-TKI (gefitinib)-resistant HCC827 cells” value in assay [12] was determined as 3.5 ng/ml. The “IC50; suppression of pHER3 (pHER3 ELISA), Kato III cells” value in [13] is 0.8 ng/ml. Besides, the “IC50; suppression of pHER3 (pHER3 ELISA), BT-474 cells” value in assay [3] was found to be 0.004 ug/ml. For the same molecule, in assay [14], the “IC50; suppression of pAKT (Meso-Scale Discovery assay), MKN45 cells” value came to 2.9 ng/ml. The “IC50; suppression of pAKT (Meso-Scale Discovery assay), Kato III cells” value in [15] was 0.9 ng/ml. Further, the “IC50; suppression of pAKT (Meso-Scale Discovery assay), BT-474 cells” value in assay [4] turned out to be 0.003 ug/ml.

B11: 2F10 antibody, human IgG1 (antibody, V domains shown)
VH: B1 VH
VL: B1 VL with P97S
For B11, in assay [1], the “BT474 6-day growth % Max inhibition” value is 49%, the “BT474 clonogenic assay % Max inhibition” value stood at 80.4%, the “BT474 pAKT assay % Max inhibition” value amounted to 62% and the “T47D HRG inducible pHer3 % Max inhibition” value turned out to be 86%.

B12: P2B11 antibody, human IgG1 (antibody, V domains shown)
VH: B1 VH
VL: not shown
Regarding B12, in [1], the “BT474 6-day growth % Max inhibition” value worked out at 47.5%, the “BT474 clonogenic assay % Max inhibition” value turned out to be 87.1%, the “BT474 pAKT assay % Max inhibition” value was found to be 62% and the “T47D HRG inducible pHer3 % Max inhibition” value turned out to be 85%.
